Results reported in patent CN101218351A (UNIV DUKE, dated 2008).

Target: T1, human CD19 (human, UniProt P15391 20-556)
T1 construct: whole, on cells; also called hCD19
T1 sequence (looked up): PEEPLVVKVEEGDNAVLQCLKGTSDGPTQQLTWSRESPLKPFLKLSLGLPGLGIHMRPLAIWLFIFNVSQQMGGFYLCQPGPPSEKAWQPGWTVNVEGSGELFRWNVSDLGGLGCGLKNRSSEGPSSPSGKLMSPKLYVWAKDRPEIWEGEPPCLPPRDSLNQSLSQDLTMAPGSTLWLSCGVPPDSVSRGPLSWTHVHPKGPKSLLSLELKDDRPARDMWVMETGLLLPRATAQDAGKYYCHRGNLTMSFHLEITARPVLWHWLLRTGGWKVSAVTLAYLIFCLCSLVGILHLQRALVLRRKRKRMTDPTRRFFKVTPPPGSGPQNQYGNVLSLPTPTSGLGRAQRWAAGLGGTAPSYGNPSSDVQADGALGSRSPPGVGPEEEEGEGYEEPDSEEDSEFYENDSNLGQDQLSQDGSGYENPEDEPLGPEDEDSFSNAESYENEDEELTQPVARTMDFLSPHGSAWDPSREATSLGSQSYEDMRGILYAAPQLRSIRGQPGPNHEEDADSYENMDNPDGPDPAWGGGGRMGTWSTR
Assay: flow cytometry on hCD19 cDNA-transfected 300.19 cells, antibody at 5 ug/mL, anti-mouse Ig PE secondary

binding result: binds
B1: FMC63 anti-CD19 antibody (antibody, IgG2a, V domains shown)
VH: EVKLQESGPGLVAPSQSLSVTCTVSGVSLPDYGVSWIRQPPRKGLEWLGVIWGSEDTTYYNSALKSRLTIIKDNSKSQVFLKMNSLQTDDTAIYYCAKHYYYGGSYAMDYWGQGTSVTVSS
VL: DIQMTQTTSSLSASLGDRVTISCRASQDISKYLNWYQQKPDGTVKLLIYHTSRLHSGVPSRFSGSGSGTDYSLTISNLEQEDIATYFCQQGNTLPYTFGGGTKLEIT
notes: Mouse monoclonal IgG2a, bought from Chemicon International
